Test results: the nanobody polyreactivity screen of Harvey et al. (2022)

Assay: yeast display, Sf9 membrane polyspecificity reagent, FACS + sequencing; frameworks hold sequencing errors
Summary of the method: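 Nanobodies came from a synthetic yeast display library in Saccharomyces cerevisiae BJ5465, induced with galactose for 36–48 hours and stained for 1 hour at 4 °C with 10% biotinylated, detergent-solubilized Sf9 membrane reagent. Cells were enriched on streptavidin microbeads and then FACS-sorted, with low and high (top ~1%) gates set on anti-HA fluorescence for expression and streptavidin fluorescence for reagent binding. Each polyreactivity label reflects the gate a clone came from. Genes were amplified by colony PCR, sequenced by MiSeq 2 × 250 and filtered by CDR length.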

Sequence	polyreactivity (PSR sort gate)
QVQLVESGGVLVQAGGSLRLSCAASGRSFGVYAMGWYRQAPGKEMELVAAISEGGGSTNYADSVKGRFTISRDNAKNTVYLQMNSLKPEDTAVYYCAATYRTGVRRYYSWGQGTQVTVSS	low polyreactivity
QVQHVESGGGIVQAGGSLRLSCAASGSTFFGNGMGWYRQAPGKERELVAAISGGGSTHYADSVKGRFTSSRDNAKNTVYVQMNSLKPEDTAVYYCSPSRDTVGRGPIQRDYWGQGTQVTVSS	low polyreactivity
QVQLVESGGGLVQAGGSLRLSCAASGSIFTAYARGWYRQAPGKERELVAAISRSGGRTYYADSVKGRFTISRDNPKKTVYLQMNSLKPEDTAVYYCAARRRRYIANLYNYWGQGTQVTVSS	high polyreactivity
QVQLVESVVGLVQAGGILRLSCSASGSTLPWYAMGWYRQAPGKERELVAAISYRGGSTYYADSVKGRFTISRDNAKNTVYLQLNSLKPEDTAVYYCAARFYFQPLWYKGYYWGQGTQVTVSS	high polyreactivity
QVQLVESVGGLVQAGGSLRLSCAASGTLATYAMGWYRQAHGKERELVAAIRYSDGRTYYADSVKGRFTISRDNAKNTVYLLMNSLKPEDTAVYYCAASFRGRGKKLDYWGQGTQVTVSS	low polyreactivity
QVQLVESGGGLDQAGGSLSLICAASASIFSYYAMGWYRQAAGKERELVATISSGGSTNYADSVKGRFTISRDNAKNTVYLQMNSLKPEDTAVYYCAATIGHNGFDYWGQGTQVTVSS	low polyreactivity
QDQLVESGGGLVQAGGSLRLSCAASGRISPRYAMGWYRQAPGKERELVAAIDTSDGTTYFADSVKGRFTISRDNAKNTVYLQMNSLKPEDTAVYYCAAEGQLFDLYDYWGQGTQGTVSS	low polyreactivity
QVQLVESGGGLVQAGGSLRLSCAASGRIFGIYAMGWYRQAPGKERELVARITGGGSTNYADSVKGRFTISRDNAKNTVYLQMNSLKPEDTAVYYCAATVRRIVGNITRYDYWGQGTQVTVSS	low polyreactivity
QVQLVESGGGLVQAGGSLRLSCAASGITFGRNAMGWYRQAPGKERELVAAISRGGSTNYADSVKGRFTISRDNAKNTVYLQMNSLKPEDTAVYYGNARSWPHGSWIPIHRRSGYWGQGTQVTVSS	high polyreactivity
QVQLVESGGGLVQAGGSLRLSCAASGRIFAYYVMGWYRQGPGKERELVASISSGGGTYYADSVKGRFTISRDNAKNTVYLQMNSLKPEDTAVYYCAARWRRYVYPDGHLFWYDYWGQGTQVTVSS	high polyreactivity
QVQLVESGGGLVQAGGSLRLSCAASGRTLPYYAMGWYRQAPGKERELVATISSRGGSTYYADSVKGRFTISRDNAKNTVYLQMNSLKPEDTAVYYCAARGNTPRTRRYGYWGQGTQVTVSS	high polyreactivity
QLQLVESGGGLVPAGGSLRLSCAASGIIFTSNTMGWYRQAPGKEREFVASINWNGSSTYADSVKGRFTISRDNGKNTVYLEMNSLKPEDTAVYYCNADYISNSVQFSLYDYWGQGTQVTVSS	low polyreactivity
QVQLVESGGGLVQAGGSLRLSCAASGSIFYNNVMGWYRQAPGKERELVAVISGGGSTNYADSVKGRFTISRDNAKNNVYLHMNSLKREDTAVYYCAARGRYSYGDRYEYWGQATQVTVSS	low polyreactivity
QVQLVESGGGLVQAGGSLRLSCAASGRIFPTNAMGWYTQAHGKEREFVSAITWRGGSTYYADSVKGRFTISRDNAKNTVYLQMNSLKPEDTAVYYCAATGHIVFFRADDYGYWGQGTQVTVSS	low polyreactivity
QVQLVESGGGLVQAGGSLRLSCAASGRTFSRYAMGWYRQAPGKERELVAAITSGGGSTYYADSVKGRFTISRDNAKNTVYLQMNSLKPEDTAVYYCAARTSGDGWIYYYWGQGTQVTVSS	high polyreactivity
QVQLVESGGGLVQAGGSLRLSCAASGSTFGPYAMGWYRQAPGKERELVADITVSDGSTYYADSVKGRFTISRDNAKNTVYLQMNSLKPEHTAVYYCAAEIYYSFGYWGQGTQVTVSS	low polyreactivity
QVQLQEIGGGLVQAGRSLRLSCAASGSISRLDYMGWYRQASGKERELVAAIDNGSTTYYADSVKGRLTISRDNAKYTVYLQMNSLKPEDTAVYFCAAVRGRGGTHAYWGQGTQVTVSG	low polyreactivity
QVQLVETGGGLVQAGGSLRLSCAASGSTFVYNAMGWYRPAPGNERELVAAITNSGSTYYADSVKGRFTISRDNAKNTVYLQMNSLKPEDTAVYDCAARSRVYWARSGYWGQGTQVTVSS	low polyreactivity
QVHLVESGGGLVQAGGSLRLSCAASGYIFDIYAMGWYRQAPGKERELVAVITRSGGGTYYADSVKGRFTISRDNAKNTVYLQMNSLKPEDTAVYYCAAESYVYGGSDYDYWGQGTQVTVSS	low polyreactivity
QVQLVESGGGLVQAGGSLRLSCAASGFTFYVNAMGWYRQATGKERELVAAISSRGGSTYYADSVKGRFTISRDNAKNTVYLQMNSLKPEDTAVYYCNRVRDQRRYEYWGQGTQVTVSS	high polyreactivity
QVQLVESGGGIVQAGCSLRIICAASGYTFGYYAMGSYRQAPGNERQFVAAITIDARTTYADSVKGRFTISRDKAKKTFYLQINSLKADDTAFYYCARGYFPYGYPWRWGYDRFDYWGQGTLVTVSS	low polyreactivity

Sequence	polyreactivity (PSR sort gate)
QVQLVESGGGLVQAGGSLRLSCAASGSIFPQYAMGWYRQAPGKERELVAGISGSGGGTYYADSVKGRFTISRDNAKNTVYLQMNSLKPEDTAVYDCYDYWGQGTQVTVSS	low polyreactivity
QVQLEESGGGLVQAGGSLRLSCAASGSTFSDNAMGWYRQAPGKERELVAAISTGTSTYADSVKGRFTISRDNAKNTVYLQMNSLKPEDTAVYYCAADVGIRPLNYHPYNYWGQGTQVTVSS	low polyreactivity
QGQLVESGGGLVQAGGSLRLSCAASGLIFYKYAMGWYRQAPGKERVLVAAISSSGGSTYYGDSVKGRFTISRDTAKNTVYFQMNSLKPEDTADSSCAARTNRRGYHDWGQGTQVTVSS	high polyreactivity
QVQLVESAGGLVQAGGSLSLSCAASGTFYLYARGWYRQAPGKQRELVAAISGSGSTNYADSVKGRFTISRDNAKNTVYLQMNSLKPEDTAVYYCAAYQRYDSVTGARYEYDYWGQGTQVTVSS	low polyreactivity
QVQLVESGGGLVQAGGSLRLSCAASGFTFGSNAMGWYRQAPGKERELVAAISYSGTRTYYADSVKGRFTISRDNAKNTVYLQMNRLKPEDTAVYYCAAGFRKTQFNVRYYYWGHGTQVTVSS	high polyreactivity
QVQLVESGGGLVQAGGSLRLSCAASGYTFKAYAMGWYRQAPGKERELVGGISRSGGSTYYADSVKGRFTISRDNAKNTVYLQMNSLKPEDTAVYYCAADSFSWETVVPSVFEFDYWGQGTQGTVSS	low polyreactivity
QVQLVESGGGLVQAGGSLRLSCAASGSTFVKYAMGWYRQAPGKERELVAAISWSGGRTYYADSVKGRFTISRDNAKNTVYLQMNSLKPEDTAVYYCAARSWYDRYPYYSWGQGTQVTVSS	high polyreactivity
QVQLVESGGGLDQAGGSHRLSCAASGSNLSGYAMVWYRQAPGKERELVADISWTGGSTYYADSVKGRLTISRDNAKNTVYLQMISLKPEVTAVYYCATRSGYRRSRVIYYHDDYGYWGQGTQVTVSS	high polyreactivity
QVQLVESGGGLVQAGGSLRLSCAASGNTFSSNAMGWYRQAPGKERELVAAISWSGGRTYYADSVKGRFTISRDNAKNTVYLQMNSLKPEDTAVYYCAAALGRRRTGYDYWGQGTQVTVSS	high polyreactivity
QVQLVESGGGLVQAGGSLRLTCAASGYTFRAYVMGWYRQAPGKERELVAGITRRGGTTYYADSVKGRFTISRYNAKNTVYLQMNSLKPEDTAVYYCNAVYRSGSIPYDSWGQGTQVTVSS	high polyreactivity
QVQLVESGGGLVQAGGSLRLSCAASGIIFPFYAMGWYRQAPGKERELVAAITSGGDTYYADSVKGRFTISRDNAKNTVYLQMNSLKPEDTAVYYCAAVYRRQYGYWGQGTQVTVSS	high polyreactivity
QVQLVESGGGLVQAGGSLRLSCAASGSIFYTNAMGWYRPAPGKERELVAAIRWSGGRTYYADSVKGRFTISRDNAKNTVYLQMNSLKPEDTAVYYCNVVVRYPSAYDYWGQGTQVTVSS	high polyreactivity
QVQLVETGGGLVQAGGSLRLSSAASGITFKWNDMGCYRQAPGKEREFVAAITGSTGSTFYADSVKGRFTISRDNAKNTVYLQMNSLKPEDTAVYYCAAGPWFYYWGQGTEVTVSS	low polyreactivity
QVQLVESGGGLVQAGGSLRLSSAASGRIFTYYAMGWYRQAPGKERELVATISRRGGSTYYADSVKGRFTISRDNAKNTVYLQMNSLKPEDTAVYYCNRTYYGYDYWGHGTQVTVSS	high polyreactivity
QVQLVESGGGLVQAGGSLRLSCAASGSIITWNAMGWYRQAPGKERELVAAIDWDGGSTYYADSVKGRFTISRDNAKNTVYLQMNSLKPEDTAVYYCAATYGWYTGRYPSGHYYYWGQGTQVTVSS	low polyreactivity
QVQLQESVGGLVQAGGSLRLSCAASGSIFKVVDMGLYRQAPAKEREFVATIGEGGNTYYADSVKGRFTISRDNAKNTVYLQMNSLKPEDTAVYFYAVVLGTSYRYTYWGQGTLVTVSS	low polyreactivity
QVQLVESGGGLVQAGGSLRLSCAASGIIFDDYAMGWYRQAPGKERELVAAITDSGGSTYYADSVKGRFTISRDNAKNTVYLQMNSLKPEDTAVYYCAARTQRRVNRVGYRSNYYYWGQGTQVTVSS	low polyreactivity
QGQLVESGGGLVQAGGSLRLSCAASGRIFYTNAMGGYRQARGKERELVAGINYSGGNTYADSVKGRFTISRDNAKNTVYLQMNSLKPEDTAVYYCAARGWSHYGYGDNYRHGYWGQGTQVTVSS	high polyreactivity
QVQLVESGGGLVQAGGSLRLSCAASGSIFDANAIGWYRQAPGKERELVAAIDSGDITNYADSVKGRFTISRDNAKNTVYLQMNSLKPEDTAVYYCAAEWHYIYAYDYWGQGTQVTVSS	low polyreactivity
QVQLVESAGGLVQAGGSLSLSCAASGGMFTGYAMGWDRQAPGTERELVAAINTGGNTYYADSVKGRFTISRDNAKNTVYLQMNSLKPEDTAVYYCAAVYFPRSNTARRYGYWGQGTQVTVSS	high polyreactivity
